Measurements taken from the Immune Epitope Database (IEDB).

Columns and labels:
[1] = target: HLA-A*11:01; experiment: IEDB peptide-MHC binding, purified MHC/competitive/fluorescence; ≥ and ≤ were set here for values at or beyond the usual limits of such assays; settings: source organism: Sudan ebolavirus
[2] = target: HLA-B*15:17; experiment: IEDB peptide-MHC binding, purified MHC/direct/fluorescence; filed as Kd, often an IC50 or EC50 that approximates it; ≥ and ≤ were set here for values at or beyond the usual limits of such assays
[3] = target: HLA-B*57:01; experiment: as above
[4] = target: HLA-B*58:01; experiment: as above; settings: source organism: Rickettsia sibirica
[5] = target: HLA-A*02:01; experiment: as above; settings: source organism: Salmonella enterica subsp. enterica serovar Typhimurium
[6] = target: HLA-A*02:12; experiment: as above
[7] = target: HLA-A*02:16; experiment: as above
[8] = target: HLA-A*02:19; experiment: as above
[9] = target: HLA-A*03:01; experiment: as above
[10] = target: HLA-A*24:03; experiment: as above
[11] = target: HLA-A*29:02; experiment: as above
[12] = target: HLA-A*68:02; experiment: as above
[13] = target: HLA-A*26:01; experiment: IEDB peptide-MHC binding, purified MHC/competitive/fluorescence; filed as Kd, often an IC50 or EC50 that approximates it; ≥ and ≤ were set here for values at or beyond the usual limits of such assays
[14] = target: HLA-A*69:01; experiment: as above
[15] = target: HLA-B*15:01; experiment: as above
[16] = target: HLA-B*18:01; experiment: as above
[17] = target: HLA-B*27:03; experiment: as above
[18] = target: HLA-B*39:01; experiment: as above
[19] = target: HLA-B*46:01; experiment: as above
[20] = target: HLA-B*51:01; experiment: as above
[21] = target: HLA-B*57:01; experiment: as above
[22] = target: HLA-A*11:01; experiment: IEDB peptide-MHC binding, purified MHC/direct/fluorescence; filed as Kd, often an IC50 or EC50 that approximates it; ≥ and ≤ were set here for values at or beyond the usual limits of such assays
[23] = target: HLA-A*31:01; experiment: IEDB peptide-MHC binding, purified MHC/competitive/fluorescence; filed as Kd, often an IC50 or EC50 that approximates it; ≥ and ≤ were set here for values at or beyond the usual limits of such assays
[24] = target: HLA-A*02:03; experiment: IEDB peptide-MHC binding, purified MHC/direct/fluorescence; filed as Kd, often an IC50 or EC50 that approximates it; ≥ and ≤ were set here for values at or beyond the usual limits of such assays; settings: source organism: Choclo virus
[25] = target: HLA-A*02:11; experiment: as above; settings: source organism: Choclo virus
[26] = target: HLA-B*40:01; experiment: as above; settings: source organism: Itapua hantavirus
[27] = target: HLA-A*02:01; experiment: IEDB peptide-MHC binding, purified MHC/competitive/fluorescence; filed as Kd, often an IC50 or EC50 that approximates it; ≥ and ≤ were set here for values at or beyond the usual limits of such assays; settings: source organism: Four Corners hantavirus
[28] = target: HLA-B*15:17; experiment: as above; settings: source organism: Four Corners hantavirus
[29] = source organism: Salmonella enterica subsp. enterica serovar Typhimurium str. LT2
[30] = source organism: West Nile virus
[31] = source organism: Bacillus anthracis
[32] = source organism: Yersinia pestis Antiqua
[33] = source organism: Four Corners hantavirus

With AAGIAWIPY the IC50 [1] was 29.6 µM.
Work on ASWMALGVY yielded a Kd ([2]; source organism: Rickettsia sibirica) of 0.0239 µM, a Kd ([3]; source organism: Rickettsia sibirica 246) of no less than 20 µM and a Kd [4] of 1.32 µM.
Work on FTGEYLLRL yielded a Kd [5] of 0.229 µM, a Kd [6, 29] of 1.04 µM and a Kd [7, 29] of no less than 20 µM. For the same sequence, the Kd [8, 29] was no less than 20 µM, the Kd [9, 29] was no less than 20 µM and the Kd [10, 29] was no less than 20 µM. It also gave a Kd [11, 29] of no less than 20 µM, a Kd [12, 29] of no less than 20 µM and a Kd ([13]; source organism: Homo sapiens) of no less than 20 µM. For the same sequence, the Kd ([14]; source organism: Homo sapiens) was no less than 20 µM, the Kd ([15]; source organism: Homo sapiens) was no less than 20 µM and the Kd ([16]; source organism: Homo sapiens) was no less than 20 µM. It also gave a Kd ([17]; source organism: Homo sapiens) of no less than 20 µM, a Kd ([18]; source organism: Homo sapiens) of no less than 20 µM and a Kd ([19]; source organism: Homo sapiens) of no less than 20 µM. The Kd ([20]; source organism: Homo sapiens) was no less than 20 µM and the Kd ([21]; source organism: Homo sapiens) was no less than 20 µM.
For GSRAIWFMW, the Kd [2, 30] was 0.063 µM and the Kd [3, 30] was 0.038 µM.
With GTLTKGVFK the Kd [9, 31] was 0.0549 µM, the Kd [22, 31] was 0.012 µM and the Kd ([23]; source organism: Bacillus anthracis str. A0488) was 0.0154 µM.
Work on KTWGKNLVF yielded a Kd ([2]; source organism: Yellow fever virus 1899/81) of 0.0017 µM.
KVCRSPAQK was tested, and the Kd [9, 32] was 1.81 µM, the Kd [22, 32] was 0.115 µM and the Kd ([23]; source organism: Yersinia pestis Nepal516) was 1.64 µM.
Work on PELGAFFAI yielded a Kd [24] of no less than 20 µM, a Kd [25] of no less than 20 µM and a Kd ([6]; source organism: Choclo virus) of no less than 20 µM. It also gave a Kd ([7]; source organism: Choclo virus) of no less than 20 µM, a Kd ([8]; source organism: Choclo virus) of no less than 20 µM and a Kd ([9]; source organism: Choclo virus) of no less than 20 µM. The Kd ([10]; source organism: Choclo virus) was no less than 20 µM, the Kd ([11]; source organism: Choclo virus) was no less than 20 µM and the Kd ([12]; source organism: Choclo virus) was no less than 20 µM. For the same sequence, the Kd [26] was 0.107 µM, the Kd [27] was no less than 20 µM and the Kd [13, 33] was no less than 20 µM. It also gave a Kd [14, 33] of no less than 20 µM, a Kd [15, 33] of no less than 20 µM and a Kd [28] of no less than 20 µM. It also gave a Kd [16, 33] of no less than 20 µM, a Kd [17, 33] of no less than 20 µM and a Kd [18, 33] of no less than 20 µM. It also gave a Kd [19, 33] of no less than 20 µM, a Kd [20, 33] of no less than 20 µM and a Kd [21, 33] of no less than 20 µM.
